For data set [1], the target named is T1, recombinant human sulfamidase (rSGSH).
T1 chain: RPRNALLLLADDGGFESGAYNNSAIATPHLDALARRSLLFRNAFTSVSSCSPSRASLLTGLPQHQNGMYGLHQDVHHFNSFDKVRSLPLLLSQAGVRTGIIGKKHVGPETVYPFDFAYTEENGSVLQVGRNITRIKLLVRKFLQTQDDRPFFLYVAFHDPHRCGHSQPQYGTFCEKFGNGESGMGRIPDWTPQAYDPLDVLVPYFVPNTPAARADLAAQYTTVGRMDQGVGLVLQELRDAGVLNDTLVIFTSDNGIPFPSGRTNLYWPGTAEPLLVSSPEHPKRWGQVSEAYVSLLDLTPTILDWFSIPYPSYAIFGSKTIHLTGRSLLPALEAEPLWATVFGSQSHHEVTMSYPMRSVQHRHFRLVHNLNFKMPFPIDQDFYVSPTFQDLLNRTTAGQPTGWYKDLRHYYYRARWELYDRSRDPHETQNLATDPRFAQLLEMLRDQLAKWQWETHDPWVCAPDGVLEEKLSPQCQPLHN

The target of data set [2] is T2, recombinant human iduronate-2 sulfatase (rhIDS).
T2 chain: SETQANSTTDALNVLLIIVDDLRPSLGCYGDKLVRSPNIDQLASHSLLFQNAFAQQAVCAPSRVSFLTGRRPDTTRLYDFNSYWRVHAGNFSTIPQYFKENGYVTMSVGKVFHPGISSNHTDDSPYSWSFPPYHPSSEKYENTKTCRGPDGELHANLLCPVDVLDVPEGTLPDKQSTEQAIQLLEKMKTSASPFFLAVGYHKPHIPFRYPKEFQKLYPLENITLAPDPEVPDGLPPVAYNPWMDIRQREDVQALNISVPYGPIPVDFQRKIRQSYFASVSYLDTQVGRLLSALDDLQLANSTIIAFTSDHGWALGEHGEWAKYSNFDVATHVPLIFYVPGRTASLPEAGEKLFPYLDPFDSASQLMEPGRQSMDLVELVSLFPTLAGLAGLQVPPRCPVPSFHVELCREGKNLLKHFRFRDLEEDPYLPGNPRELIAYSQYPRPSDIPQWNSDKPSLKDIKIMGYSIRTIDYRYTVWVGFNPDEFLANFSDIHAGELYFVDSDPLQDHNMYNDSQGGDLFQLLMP

B1: Bos taurus FGE fusion protein (Lip2pre-BtFGE-6HIS-HDEL) (protein)
chain: GEEAGPEAGAPSLVGSCGCGNPQRPGAQGSSAAAHRYSREANAPGSVPGGRPSPPTKMVPIPAGVFTMGTDDPQIKQDGEAPARRVAIDAFYMDAYEVSNAEFEKFVNSTGYLTEAEKFGDSFVFEGMLSEQVKSDIQQAVAAAPWWLPVKGANWRHPEGPDSTVLHRPDHPVLHVSWNDAVAYCTWAGKRLPTEAEWEYSCRGGLQNRLFPWGNKLQPKGQHYANIWQGEFPVTNTGEDGFRGTAPVDAFPPNGYGLYNIVGNAWEWTSDWWTVHHSAEETINPKGPPSGKDRVKKGGSYMCHKSYCYRYRCAARSQNTPDSSASNLGFRCAADHLPTTGADHLPTTGHHHHHHHDEL
In the case of B1, in data set [1], the % FGly conversion; sample 1, SGSH (POX) + BtFGE (POX) + hPDI (POX) turned out to be 95.4%; the % FGly conversion; sample 2, SGSH (POX) + BtFGE (POX) + hPDI (POX) came out at 80.4%; the % FGly conversion; sample 3, SGSH (POX) + BtFGE (POX) + hPDI (POX) § worked out at 93.4%; the % FGly conversion; sample 4, SGSH (POX) + BtFGE (POX) + hPDI (POX) § worked out at 86.1%. Moreover, in data set [1], the % FGly conversion; sample 5, SGSH (POX) + BtFGE (POX & Hp4d) worked out at 94.4%. In addition, in data set [2], the % FGly conversion (nano-LC MS); strain T146 (OXYY1828; BtFGE) was determined as 89.8%; the % FGly conversion (nano-LC MS); strain T146 (OXYY1828; BtFGE), duplicate came out at 92.7%; the % FGly conversion-re-analyzed samples; DG29U5#7, OXYY1828; BtFGE was 95.8%; the % FGly conversion-re-analyzed samples; DG33U6#6, OXYY1803; BtFGE and hPDI co-expressed stood at 90.3%. In data set [2], the % FGly conversion-re-analyzed samples; DG33U8#6, OXYY1828; BtFGE was 97.1%; the % FGly conversion; DG33U6#6, OXYY1803; BtFGE and hPDI co-expressed stood at 79.5%; the “% FGly conversion; two copies of rhIDS and one copy of BtFGE (POX2 driven)” value is given as 100% FGly conversion at a detection limit of -0.5%; the % active rhIDS (4MU activity against ELISA); 1 copy rhIDS, 1 copy BtFGE (POX) turned out to be 129%. Also, in data set [2], the % active rhIDS (4MU activity against ELISA); 1 copy rhIDS, 1 copy BtFGE (POX), 1 copy hPDI (POX) came to 121%; the “% activity of rhIDS; two copies of rhIDS and one copy of BtFGE (POX2 driven)” value came out at 101% activity; the “Cys->FGly conversion in rhIDS (nano-LC-MS after cation exchange purification); BtFGE as a single POX2 driven copy” value is reported as “complete conversion (100%, with a detection limit of -0.5%)”; the “active rhIDS (4MU fluorogenic activity assay against sandwich ELISA), co-expression in Y. lipolytica” value is “All Y. lipolytica strains co-expressing rFGE with rhIDS resulted in the expression of active rhIDS”.
